Source: US20230357348A1 (AstraZeneca / MedImmune, published 2023)
Starred links: 1 amine or outer side, 2 acyl side, 3 side chain; linkers in the order of their positions; H or OH if unused. Non-standard residues stand in square brackets, D forms with d. Groups on a side chain read outwards from the residue. No end group written: not given here. *: point of attachment. C20 diacid = O=C(O)CCCCCCCCCCCCCCCCCCC(=O)*; C18 diacid = O=C(O)CCCCCCCCCCCCCCCCC(=O)*; γGlu = O=C(O)[C@H](CCC(=O)[*:2])N[*:1]; αMeF = C[C@](N)(Cc1ccccc1)C(=O)O; AEEA = NCCOCCOCC(=O)O; Aib = CC(C)(N)C(=O)O

B1: Peptide 525 (peptide)
peptide: H[Aib]QGTFTSDVSK[αMeF]LDSERAK([AEEA-AEEA-γGlu-C18 diacid])DFVQWLEA[Aib]G-OH
modifications: N-terminus assumed
SMILES: CC(C)C[C@H](NC(=O)[C@H](Cc1c[nH]c2ccccc12)NC(=O)[C@H](CCC(N)=O)NC(=O)[C@@H](NC(=O)[C@H](Cc1ccccc1)NC(=O)[C@H](CC(=O)O)NC(=O)[C@H](CCCCNC(=O)COCCOCCNC(=O)COCCOCCNC(=O)CC[C@H](NC(=O)CCCCCCCCCCCCCCCCC(=O)O)C(=O)O)NC(=O)[C@H](C)NC(=O)[C@H](CCCNC(=N)N)NC(=O)[C@H](CCC(=O)O)NC(=O)[C@H](CO)NC(=O)[C@H](CC(=O)O)NC(=O)[C@H](CC(C)C)NC(=O)[C@](C)(Cc1ccccc1)NC(=O)[C@H](CCCCN)NC(=O)[C@H](CO)NC(=O)[C@@H](NC(=O)[C@H](CC(=O)O)NC(=O)[C@H](CO)NC(=O)[C@@H](NC(=O)[C@H](Cc1ccccc1)NC(=O)[C@@H](NC(=O)CNC(=O)[C@H](CCC(N)=O)NC(=O)C(C)(C)NC(=O)[C@@H](N)Cc1c[nH]cn1)[C@@H](C)O)[C@@H](C)O)C(C)C)C(C)C)C(=O)N[C@@H](CCC(=O)O)C(=O)N[C@@H](C)C(=O)NC(C)(C)C(=O)NCC(=O)O
B2: Peptide 340 (peptide)
peptide: H[Aib]QGTFTSDYSK[αMeF]LDSRRAK([γGlu-C18 diacid])DFVQWLL[Aib]E-OH
modifications: N-terminus assumed
SMILES: CC(C)C[C@H](NC(=O)[C@H](Cc1c[nH]c2ccccc12)NC(=O)[C@H](CCC(N)=O)NC(=O)[C@@H](NC(=O)[C@H](Cc1ccccc1)NC(=O)[C@H](CC(=O)O)NC(=O)[C@H](CCCCNC(=O)CC[C@H](NC(=O)CCCCCCCCCCCCCCCCC(=O)O)C(=O)O)NC(=O)[C@H](C)NC(=O)[C@H](CCCNC(=N)N)NC(=O)[C@H](CCCNC(=N)N)NC(=O)[C@H](CO)NC(=O)[C@H](CC(=O)O)NC(=O)[C@H](CC(C)C)NC(=O)[C@](C)(Cc1ccccc1)NC(=O)[C@H](CCCCN)NC(=O)[C@H](CO)NC(=O)[C@H](Cc1ccc(O)cc1)NC(=O)[C@H](CC(=O)O)NC(=O)[C@H](CO)NC(=O)[C@@H](NC(=O)[C@H](Cc1ccccc1)NC(=O)[C@@H](NC(=O)CNC(=O)[C@H](CCC(N)=O)NC(=O)C(C)(C)NC(=O)[C@@H](N)Cc1c[nH]cn1)[C@@H](C)O)[C@@H](C)O)C(C)C)C(=O)N[C@@H](CC(C)C)C(=O)NC(C)(C)C(=O)N[C@@H](CCC(=O)O)C(=O)O
B3: Peptide 526 (peptide)
peptide: H[Aib]QGTFTSDVSK[αMeF]LDSERAK([AEEA-AEEA-γGlu-C18 diacid])DFVAWLEA[Aib]G-OH
modifications: N-terminus assumed
SMILES: CC(C)C[C@H](NC(=O)[C@H](Cc1c[nH]c2ccccc12)NC(=O)[C@H](C)NC(=O)[C@@H](NC(=O)[C@H](Cc1ccccc1)NC(=O)[C@H](CC(=O)O)NC(=O)[C@H](CCCCNC(=O)COCCOCCNC(=O)COCCOCCNC(=O)CC[C@H](NC(=O)CCCCCCCCCCCCCCCCC(=O)O)C(=O)O)NC(=O)[C@H](C)NC(=O)[C@H](CCCNC(=N)N)NC(=O)[C@H](CCC(=O)O)NC(=O)[C@H](CO)NC(=O)[C@H](CC(=O)O)NC(=O)[C@H](CC(C)C)NC(=O)[C@](C)(Cc1ccccc1)NC(=O)[C@H](CCCCN)NC(=O)[C@H](CO)NC(=O)[C@@H](NC(=O)[C@H](CC(=O)O)NC(=O)[C@H](CO)NC(=O)[C@@H](NC(=O)[C@H](Cc1ccccc1)NC(=O)[C@@H](NC(=O)CNC(=O)[C@H](CCC(N)=O)NC(=O)C(C)(C)NC(=O)[C@@H](N)Cc1c[nH]cn1)[C@@H](C)O)[C@@H](C)O)C(C)C)C(C)C)C(=O)N[C@@H](CCC(=O)O)C(=O)N[C@@H](C)C(=O)NC(C)(C)C(=O)NCC(=O)O
B4: Peptide 523 (peptide)
peptide: H[Aib]QGTFTSDVSK[αMeF]LDSERAK([AEEA-AEEA-γGlu-C20 diacid])DFVAWLEAGG-OH
modifications: N-terminus assumed
SMILES: CC(C)C[C@H](NC(=O)[C@H](Cc1c[nH]c2ccccc12)NC(=O)[C@H](C)NC(=O)[C@@H](NC(=O)[C@H](Cc1ccccc1)NC(=O)[C@H](CC(=O)O)NC(=O)[C@H](CCCCNC(=O)COCCOCCNC(=O)COCCOCCNC(=O)CC[C@H](NC(=O)CCCCCCCCCCCCCCCCCCC(=O)O)C(=O)O)NC(=O)[C@H](C)NC(=O)[C@H](CCCNC(=N)N)NC(=O)[C@H](CCC(=O)O)NC(=O)[C@H](CO)NC(=O)[C@H](CC(=O)O)NC(=O)[C@H](CC(C)C)NC(=O)[C@](C)(Cc1ccccc1)NC(=O)[C@H](CCCCN)NC(=O)[C@H](CO)NC(=O)[C@@H](NC(=O)[C@H](CC(=O)O)NC(=O)[C@H](CO)NC(=O)[C@@H](NC(=O)[C@H](Cc1ccccc1)NC(=O)[C@@H](NC(=O)CNC(=O)[C@H](CCC(N)=O)NC(=O)C(C)(C)NC(=O)[C@@H](N)Cc1c[nH]cn1)[C@@H](C)O)[C@@H](C)O)C(C)C)C(C)C)C(=O)N[C@@H](CCC(=O)O)C(=O)N[C@@H](C)C(=O)NCC(=O)NCC(=O)O
B5: Peptide 362 (peptide)
peptide: H[Aib]HGS[αMeF]TSDVSK[αMeF]LDSRAAQDFVK([AEEA-AEEA-γGlu-γGlu-C18 diacid])WIANT-NH2
modifications: N-terminus assumed
SMILES: CC[C@H](C)[C@H](NC(=O)[C@H](Cc1c[nH]c2ccccc12)NC(=O)[C@H](CCCCNC(=O)COCCOCCNC(=O)COCCOCCNC(=O)CC[C@H](NC(=O)CC[C@H](NC(=O)CCCCCCCCCCCCCCCCC(=O)O)C(=O)O)C(=O)O)NC(=O)[C@@H](NC(=O)[C@H](Cc1ccccc1)NC(=O)[C@H](CC(=O)O)NC(=O)[C@H](CCC(N)=O)NC(=O)[C@H](C)NC(=O)[C@H](C)NC(=O)[C@H](CCCNC(=N)N)NC(=O)[C@H](CO)NC(=O)[C@H](CC(=O)O)NC(=O)[C@H](CC(C)C)NC(=O)[C@](C)(Cc1ccccc1)NC(=O)[C@H](CCCCN)NC(=O)[C@H](CO)NC(=O)[C@@H](NC(=O)[C@H](CC(=O)O)NC(=O)[C@H](CO)NC(=O)[C@@H](NC(=O)[C@](C)(Cc1ccccc1)NC(=O)[C@H](CO)NC(=O)CNC(=O)[C@H](Cc1c[nH]cn1)NC(=O)C(C)(C)NC(=O)[C@@H](N)Cc1c[nH]cn1)[C@@H](C)O)C(C)C)C(C)C)C(=O)N[C@@H](C)C(=O)N[C@@H](CC(N)=O)C(=O)N[C@H](C(N)=O)[C@@H](C)O
B6: Peptide 522 (peptide)
peptide: H[Aib]QGTFTSDVSK[αMeF]LDSERAK([AEEA-AEEA-γGlu-C18 diacid])DFVAWLEAGG-OH
modifications: N-terminus assumed
SMILES: CC(C)C[C@H](NC(=O)[C@H](Cc1c[nH]c2ccccc12)NC(=O)[C@H](C)NC(=O)[C@@H](NC(=O)[C@H](Cc1ccccc1)NC(=O)[C@H](CC(=O)O)NC(=O)[C@H](CCCCNC(=O)COCCOCCNC(=O)COCCOCCNC(=O)CC[C@H](NC(=O)CCCCCCCCCCCCCCCCC(=O)O)C(=O)O)NC(=O)[C@H](C)NC(=O)[C@H](CCCNC(=N)N)NC(=O)[C@H](CCC(=O)O)NC(=O)[C@H](CO)NC(=O)[C@H](CC(=O)O)NC(=O)[C@H](CC(C)C)NC(=O)[C@](C)(Cc1ccccc1)NC(=O)[C@H](CCCCN)NC(=O)[C@H](CO)NC(=O)[C@@H](NC(=O)[C@H](CC(=O)O)NC(=O)[C@H](CO)NC(=O)[C@@H](NC(=O)[C@H](Cc1ccccc1)NC(=O)[C@@H](NC(=O)CNC(=O)[C@H](CCC(N)=O)NC(=O)C(C)(C)NC(=O)[C@@H](N)Cc1c[nH]cn1)[C@@H](C)O)[C@@H](C)O)C(C)C)C(C)C)C(=O)N[C@@H](CCC(=O)O)C(=O)N[C@@H](C)C(=O)NCC(=O)NCC(=O)O

Legend:
Experiment in all cases: cell-based or functional assay
[1] = target: human GLP-1 receptor (hGLP-1R) (human, UniProt P43220 24-463)
[2] = target: human glucagon receptor (human, UniProt P47871 26-477)
[3] = target: human GLP-1 receptor (human, UniProt P43220 24-463)
[4] = target: human glucagon receptor (hGCGR) (human, UniProt P47871 26-477)
human glucagon receptor (hGCGR), sequence (P47871 26-477): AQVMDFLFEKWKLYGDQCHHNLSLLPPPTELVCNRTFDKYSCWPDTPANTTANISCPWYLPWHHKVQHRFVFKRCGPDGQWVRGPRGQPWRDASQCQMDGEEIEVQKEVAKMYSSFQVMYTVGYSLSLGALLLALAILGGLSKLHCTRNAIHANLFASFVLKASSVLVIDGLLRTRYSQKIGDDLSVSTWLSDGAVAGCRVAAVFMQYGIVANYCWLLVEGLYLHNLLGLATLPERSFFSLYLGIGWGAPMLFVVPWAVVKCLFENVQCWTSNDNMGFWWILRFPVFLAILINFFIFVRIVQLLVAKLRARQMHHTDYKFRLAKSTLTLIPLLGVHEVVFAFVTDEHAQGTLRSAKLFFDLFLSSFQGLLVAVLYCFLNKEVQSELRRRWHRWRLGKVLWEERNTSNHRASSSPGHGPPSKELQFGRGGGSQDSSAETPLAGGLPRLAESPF

human glucagon receptor, sequence (P47871 26-477): as above

Binder	hGLP-1R EC50 (pM); cAMP production [1]	hGluc-R EC50 (pM), cAMP [2]	hGLP-1R EC50 (pM), cAMP [3]	hGluc-R EC50 (pM); cAMP production [4]
HXHGSXTSDVSKXLDSQAAQDFVXWIANT (Aib at 2; αMePhe at 6 and 13; K(O2Oc-O2Oc-γE-C18diacid)24; C-terminal amide) [Peptide 358]	74.9 pM			
HXHGTFTSDVSKXLDSQAAQDFVXWIANT (Aib at 2; αMePhe at 13; K(γE-C18diacid)24; C-terminal amide) [Peptide 346]	7320 pM			
B1		2450 pM	177 pM	
B2		94.7 pM	312 pM	
B3		690 pM	194 pM	
B4		> 24700 pM	615 pM	
H[Aib]QGTFTSDVSE[αMeF]LDSERAK([AEEA-AEEA-γGlu-C18 diacid])DFVRWLEAGG-OH (not fully specified) [Peptide 524]		> 24400 pM	366 pM	
B5				42.8 pM
B6		6360 pM	508 pM	
H[Aib]QGTFTSDVSK[αMeF]LDSRAAKDFVQWIANT-NH2 (not fully specified (residue 20)) [Peptide 343]		19600 pM	198 pM	
H[Aib]HGS[αMeF]TSDVSK[αMeF]LDSRAAQD[αMeF]VK([AEEA-AEEA-γGlu-C18 diacid])SIANT-NH2 (not fully specified) [Peptide 379]	71.8 pM			85.7 pM
